One molecule from patent publication US20240239881A1 (Innovent, published 2024) can be followed below.

The target in one test is T1, Rat ANG2 (rat, UniProt O35462 19-496, limits assumed).
T1 sequence (looked up): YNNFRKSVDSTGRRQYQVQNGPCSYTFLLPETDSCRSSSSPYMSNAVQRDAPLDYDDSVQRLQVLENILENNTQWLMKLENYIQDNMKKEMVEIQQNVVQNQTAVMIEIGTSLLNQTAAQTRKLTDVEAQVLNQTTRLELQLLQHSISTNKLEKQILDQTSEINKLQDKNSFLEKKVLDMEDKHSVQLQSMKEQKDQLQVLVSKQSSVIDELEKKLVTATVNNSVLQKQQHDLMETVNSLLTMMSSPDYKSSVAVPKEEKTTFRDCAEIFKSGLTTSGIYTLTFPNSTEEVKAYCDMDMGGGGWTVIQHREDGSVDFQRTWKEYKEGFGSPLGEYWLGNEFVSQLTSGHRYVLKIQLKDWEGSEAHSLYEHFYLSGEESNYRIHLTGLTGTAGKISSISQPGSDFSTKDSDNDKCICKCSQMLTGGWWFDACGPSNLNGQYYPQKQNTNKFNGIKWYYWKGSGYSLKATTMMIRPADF
Briefly: SPR, Biacore T200, antibody captured on Protein G chip. As for the experimental part:
(§1) The antibody was diluted to 1 μg/mL and was captured onto channel 2 for 30 s, and channel 1 was the blank control channel. The gradient-diluted Human ANG2, Rhesus ANG2, Rabbit ANG2, Rat ANG2 and Mouse ANG2 were sequentially injected into channels 1 and 2 of the chip, from low to high concentrations (0-32 nM), at a flow rate of 30 μL/min, with one concentration per cycle, and with 180 s association time and 1200 s dissociation time at 25° C. Finally, the chip was regenerated using Glycine pH 1.5 at 30 μL/min for 30 s. The affinity assay was repeated three times.
(Surface plasmon resonance follows binding to a sensor surface in real time, without labels.)

Another test deals with T2, Mouse ANG2 (mouse, UniProt O35608 19-496, limits assumed).
T2 sequence (looked up): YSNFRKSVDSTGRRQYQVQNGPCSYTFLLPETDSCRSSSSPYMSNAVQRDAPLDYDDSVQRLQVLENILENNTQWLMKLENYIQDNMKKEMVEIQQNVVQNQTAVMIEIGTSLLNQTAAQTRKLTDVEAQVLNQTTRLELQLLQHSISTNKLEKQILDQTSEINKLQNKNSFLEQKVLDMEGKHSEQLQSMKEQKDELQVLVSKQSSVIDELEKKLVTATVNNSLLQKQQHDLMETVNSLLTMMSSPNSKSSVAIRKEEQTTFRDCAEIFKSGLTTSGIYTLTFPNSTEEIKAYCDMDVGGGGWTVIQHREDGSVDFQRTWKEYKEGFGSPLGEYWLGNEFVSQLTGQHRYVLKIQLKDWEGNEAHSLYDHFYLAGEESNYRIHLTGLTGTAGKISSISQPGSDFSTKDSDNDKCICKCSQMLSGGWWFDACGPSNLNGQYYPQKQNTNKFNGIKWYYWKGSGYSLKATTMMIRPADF
Described as above. How it is done:
as §1

The target in test [1] is T3, hAng2-Fc protein (Sino Biological, Cat No.: 10691-H02H) (human, UniProt O15123 19-496).
T3 construct: Bought fusion; also called human Ang2-Fc; human Ang2-hFc; not shown: human Fc of the bought fusion protein
T3 sequence: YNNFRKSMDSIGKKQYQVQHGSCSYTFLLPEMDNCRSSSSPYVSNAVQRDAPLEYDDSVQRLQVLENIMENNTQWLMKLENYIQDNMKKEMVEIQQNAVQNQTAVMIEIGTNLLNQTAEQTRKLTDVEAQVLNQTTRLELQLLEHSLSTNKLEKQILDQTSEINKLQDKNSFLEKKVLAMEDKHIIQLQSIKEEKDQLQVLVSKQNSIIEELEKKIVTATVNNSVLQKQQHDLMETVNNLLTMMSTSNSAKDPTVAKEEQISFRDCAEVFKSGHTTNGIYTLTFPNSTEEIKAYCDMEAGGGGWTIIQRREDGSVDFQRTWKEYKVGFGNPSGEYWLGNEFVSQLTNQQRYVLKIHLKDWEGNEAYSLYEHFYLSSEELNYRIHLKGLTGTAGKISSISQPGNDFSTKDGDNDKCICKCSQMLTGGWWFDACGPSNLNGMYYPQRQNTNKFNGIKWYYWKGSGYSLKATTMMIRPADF
Briefly: blocking assay by flow cytometry: antibody titrated against hAng2-Fc (2 ug/ml final); blocked binding to human Tie2 on 293-tie2 cells; anti-human IgG-PE, MFI. As for the experimental part:
The ability of hz81H10.4 and the control antibody Nesvacumab to block the binding of human Ang2-hFc to Tie2 on the cell surface was detected by flow cytometry (FACS).
The antigen hAng2-Fc protein (Sino Biological, Cat No.: 10691-H02H) was diluted to 4 μg/ml, and added to the plate wells at 50 μl/well. Antibodies (hz81H10.4 and control antibody Nesvacumab) prepared as described above were diluted at 2-fold with a total of 12 dilution points starting from the highest concentration of 800 nM, and added to the plate wells at 50 μl/well, and incubated in PBS on ice for 30 min, where the final concentration of the antigen was 2 μg/ml and the highest concentration of antibody was 400 nM. […] The cells were centrifuged at 300 g for 5 min, and after the supernatant was discarded, the cells were resuspended in the antigen-antibody mixture. The cells were incubated on ice for 30 min, and added with PBS at 100 μl/well, centrifuged at 300 g for 5 min, and washed with PBS once. A 100 μl of goat anti-human IgG-PE (Southern Biotech, Cat. No. 2040-09) diluted at 1:200 was added to each well and placed in an ice bath for 20 min. PBS was added at 100 μl/well, and the cells were centrifuged at 300 g for 5 min, and washed once with PBS. The cells were resuspended in 100 μl PBS and the fluorescence signals of the cells were detected by a flow cytometer (BD Biosciences). […]
On the technique in general: Flow cytometry measures light scatter and fluorescence of single cells or particles in a stream.

B1: humanized antibody hz81H10.4 (antibody, human IgG1, kappa, V domains shown)
VH: EVQLVESGGGLVKPGGSLRLSCAASGFTFSNYWMNWVRQAPGKGLEWVAEIRLKSNNYATHYAESVKGRFTISRDVSKNTVYLQMNSLKTEDTAVYYCTDTAPFAYWGQGTLVTVSS
VL: DIQMTQSPSSLSASVGDRVTITCKASQDVGTDVAWYQQKPGKAPKLLIYWASTRHTGVPSRFSGSGSGTDFTLTISSLQPEDFATYYCQQYSSYPLTFGGGTKVEIKR
notes: also called IBI335
One may read the IC50 as the concentration that gives 50% inhibition. In the case of B1, the binding result with Rat ANG2 and in the test with Mouse ANG2 was “no binding (tested: 0-32 nM)” each time. The molecule further gave a half-inhibitory concentration (IC50) in test [1] of 2.3 nM.
